Measured values as given in paper PMC10514269, “W546 stacking disruption traps the human porphyrin transporter ABCB6 in an outward-facing transient state” (Communications Biology, 2023).

Biological target: the molecule itself
Assay: cryo-EM structure; detergent-purified protein (6 mg/mL) incubated with 100 μM CPIII, 2 mM MgCl2, 2 mM ATP and 2 mM sodium orthovanadate for 30 min at 22 °C; single-particle analysis

Protein | binding result | stoichiometry N
core region of human ABCB6 (residues 206-842, without TMD0) (domain or fragment, UniProt Q9NP58 206-842, looked up, Homodimer in the cryo-EM maps; also called hABCB6^core; ABCB6^core; not shown: eGFP, C-terminal, cleaved; 10×His, C-terminal, cleaved) APGLRPQSYTLQVHEEDQDVERSQVRSAAQQSTWRDFGRKLRLLSGYLWPRGSPALQLVVLICLGLMGLERALNVLVPIFYRNIVNLLTEKAPWNSLAWTVTSYVFLKFLQGGGTGSTGFVSNLRTFLWIRVQQFTSRRVELLIFSHLHELSLRWHLGRRTGEVLRIADRGTSSVTGLLSYLVFNVIPTLADIIIGIIYFSMFFNAWFGLIVFLCMSLYLTLTIVVTEWRTKFRRAMNTQENATRARAVDSLLNFETVKYYNAESYEVERYREAIIKYQGLEWKSSASLVLLNQTQNLVIGLGLLAGSLLCAYFVTEQKLQVGDYVLFGTYIIQLYMPLNWFGTYYRMIQTNFIDMENMFDLLKEETEVKDLPGAGPLRFQKGRIEFENVHFSYADGRETLQDVSFTVMPGQTLALVGPSGAGKSTILRLLFRFYDISSGCIRIDGQDISQVTQASLRSHIGVVPQDTVLFNDTIADNIRYGRVTAGNDEVEAAAQAAGIHDAIMAFPEGYRTQVGERGLKLSGGEKQRVAIARTILKAPGIILLDEATSALDTSNERAIQASLAKVCANRTTIVVAHRLSTVVNADQILVIKDGCIVERGRHEALLSRGGVYADMWQLQQGQEETSEDTKPQTMER | binds | 
hABCB6^core-W546A mutant (domain or fragment, human, UniProt Q9NP58 206-842, looked up, Homodimer in the cryo-EM structures; Used in detergent micelles and in nanodiscs (porcine brain polar lipids, hApoA-I (Δ1-43) scaffold); source: also reconstituted into nanodiscs; not shown: eGFP, C-terminal, cleaved; 10×His, C-terminal, cleaved) APGLRPQSYTLQVHEEDQDVERSQVRSAAQQSTWRDFGRKLRLLSGYLWPRGSPALQLVVLICLGLMGLERALNVLVPIFYRNIVNLLTEKAPWNSLAWTVTSYVFLKFLQGGGTGSTGFVSNLRTFLWIRVQQFTSRRVELLIFSHLHELSLRWHLGRRTGEVLRIADRGTSSVTGLLSYLVFNVIPTLADIIIGIIYFSMFFNAWFGLIVFLCMSLYLTLTIVVTEWRTKFRRAMNTQENATRARAVDSLLNFETVKYYNAESYEVERYREAIIKYQGLEWKSSASLVLLNQTQNLVIGLGLLAGSLLCAYFVTEQKLQVGDYVLFGTYIIQLYMPLNAFGTYYRMIQTNFIDMENMFDLLKEETEVKDLPGAGPLRFQKGRIEFENVHFSYADGRETLQDVSFTVMPGQTLALVGPSGAGKSTILRLLFRFYDISSGCIRIDGQDISQVTQASLRSHIGVVPQDTVLFNDTIADNIRYGRVTAGNDEVEAAAQAAGIHDAIMAFPEGYRTQVGERGLKLSGGEKQRVAIARTILKAPGIILLDEATSALDTSNERAIQASLAKVCANRTTIVVAHRLSTVVNADQILVIKDGCIVERGRHEALLSRGGVYADMWQLQQGQEETSEDTKPQTMER |  | 2
